Experiment: yeast display, Sf9 membrane polyspecificity reagent, FACS + sequencing; frameworks hold sequencing errors
Summary of the method: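 Nanobodies from a synthetic yeast display library (Saccharomyces cerevisiae BJ5465), induced 36–48 hours with galactose, were stained 1 hour at 4 °C with 10% biotinylated, detergent-solubilized Sf9 membrane reagent, enriched on streptavidin microbeads, then FACS-sorted. Anti-HA (expression) and streptavidin (reagent binding) fluorescence set low and high (top ~1%) gates. Polyreactivity labels come from the gate of origin. Genes were colony-PCR amplified, MiSeq 2 × 250 sequenced and filtered by CDR length.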

Sequence	polyreactivity (PSR sort gate)
QVQLVESGGGLVQAGGSLRLSCAASGSTFRYYAMGWYRQAPGKERELVAGITNGGRTNYADSVQGRFTISRDNAKNTVYLQMHSLKPEDTAVYYCAADLAWRRIGYNYWGQGTQVTVSS	high polyreactivity
QVQLVESGGGLVQAGGSLRLSCAASGSTFRYYAMGWYRQAPGKERELVASISSGGSTNYADSVKGRFTISRDNAKNTVYLQMNSLKPEDTAVYYCNADSWTVNRRYYYYRYEYWGQGTQVTVSS	low polyreactivity
QVQLVESGGGLVQAGGSLRLSCAASGSTFRYYAMGWYRQAPGKESELVAAITSSGTSTYYADSVKGRFTISRDNAKNTVYLQMNSLKPEDTAVYYCAAPPVYKWVSSRYDYWGQGTQVTVSS	low polyreactivity
QVQLVESGGGLVQAGGSLRLSCAASGSTFRYYAMGWYRQARGKERELVAAITSSGGRTYYADSVKGRFTISRDNAKNTVYLQMNSLKPEDTAVYYCAAYAYYHTGDDYWGQGTQVTVSS	high polyreactivity
QVQLVESGGGLVQAGGSLRLSCAASGSTFRYYARGWYRPAPGKERELVAAITRSGGSTYYADSVKGRFTISRDNAKNTVYLQMNSLKPEDTAVYYCAARWAYPHKTYGTEQTEYDYWGQGTQVTVSS	high polyreactivity
QVQLVESGGGLVQAGGSLRLSCAASGSTFRYYTMGWYRQAPGKERELVADITIGGSTYYADSVKGRFTISRDNSKNSVYLQMYSLKPEDTAVYYCAARSTGGRIFATGVAYAYWGQGTQVTVSS	low polyreactivity
QVQLVESGGGLVQAGGSLRLSCAASGSTFRYYVMGWYRQAPWKERELVAGITKSGGNTYYADSVKGRFTISRDNAKNTVYLQMNSLKPEDTAVYYCAARGLWTRGYYYWGQGTQVTVSS	high polyreactivity
QVQLVESGGGLVQAGGSLRLSCAASGSTFRYYVMGWYRTAPGKERDLVAVISGSGGYTYYADSVKGRFTISRDNAKNTVYLQMNSLKPEDTAVYYCAAARKFIPGRGRTYDSWGQGTQVTVSS	high polyreactivity
QVQLVESGGGLVQAGGSLRLSCAASGSTFSANAMGWYRPAPGKERELVAAISRSGTRTYYADSVKGRFTISRDNAKNTVYLQMNSLKPEDTAVYYCAAYVYQYGYDYWGQGTQVTVSS	high polyreactivity
QVQLVESGGGLVQAGGSLRLSCAASGSTFSANTMGWYRQAPGKERELVAGITNTGDTYYADSVKGRFTISRDNAKNTVYFQMNSLKPEDTAVYYCAADSWRRTDGAYWSTVYYWGQGTQVTVSS	low polyreactivity
QVQLVESGGGLVQAGGSLRLSCAASGSTFSAYGMGWYRQAPGKERELVARISWNGGSTYYADSVKGRFTISRDNAKNTVYLQMNSLKPEDTAVYYCNTELVGHPDWLSWRYYYWGQGTQVTVSS	low polyreactivity
QVQLVESGGGLVQAGGSLRLSCAASGSTFSDYAMGWYRQATGKERELVAAISKRGGSTYYADSVKGRFTISRDNAKNTVFLQMNSQKPEDTAVYYCNKESLYREFDYWGQGTQVTVSS	low polyreactivity
QVQLVESGGGLVQAGGSLRLSCAASGSTFSDYTMGWYRQAPGKERELVAAITTIGGSTYYADSVKGRFTISRDNAKNTVYLQMNSLKPEDTAVYYCAAYYYYPFEYYYWGQGTQVTVSS	low polyreactivity
QVQLVESGGGLVQAGGSLRLSCAASGSTFSDYVMGWYRQAPGKEREFVAAISWTGGITYYADSVKGRFTISRDNAKNTVYLQMNSLKPEDTAVYYCAAKRKYYGNGYWGQGTQVTVSS	high polyreactivity
QVQLVESGGGLVQAGGSLRLSCAASGSTFSEYAMGWYRQAPGKERELVASITWSDDSTYYADSVKGRFTISRDNAKITVYLQMNSLKPEDSAVYYCAVRTGRRWWKFDYWGQGTQVTVSS	low polyreactivity
QVQLVESGGGLVQAGGSLRLSCAASGSTFSFYAMGWYRQAPGKERELVAAISRSGGSTFYADSVKGRFTISRDNAKNTFYLQMNSLKAEDTAVYYCAAEYAYVPGWYEYWGQGTQVTVSS	high polyreactivity
QVQLVESGGGLVQAGGSLRLSCAASGSTFSFYAMGWYRQAPGKERELVADITSGGSTYYADSVKGRFTISRDNAKNTVYLQMNSLKPEDTAVYYCAKADYGGDYYYQSGGLYYYWGQGTQVTVSS	low polyreactivity

Source: the nanobody polyreactivity screen of Harvey et al. (2022)
